Biological target: KAT2-CFP (Arabidopsis thaliana, UniProt Q38849 1-697)
Test: cell-based or functional assay

Chain of KAT2-CFP (Q38849 whole entry): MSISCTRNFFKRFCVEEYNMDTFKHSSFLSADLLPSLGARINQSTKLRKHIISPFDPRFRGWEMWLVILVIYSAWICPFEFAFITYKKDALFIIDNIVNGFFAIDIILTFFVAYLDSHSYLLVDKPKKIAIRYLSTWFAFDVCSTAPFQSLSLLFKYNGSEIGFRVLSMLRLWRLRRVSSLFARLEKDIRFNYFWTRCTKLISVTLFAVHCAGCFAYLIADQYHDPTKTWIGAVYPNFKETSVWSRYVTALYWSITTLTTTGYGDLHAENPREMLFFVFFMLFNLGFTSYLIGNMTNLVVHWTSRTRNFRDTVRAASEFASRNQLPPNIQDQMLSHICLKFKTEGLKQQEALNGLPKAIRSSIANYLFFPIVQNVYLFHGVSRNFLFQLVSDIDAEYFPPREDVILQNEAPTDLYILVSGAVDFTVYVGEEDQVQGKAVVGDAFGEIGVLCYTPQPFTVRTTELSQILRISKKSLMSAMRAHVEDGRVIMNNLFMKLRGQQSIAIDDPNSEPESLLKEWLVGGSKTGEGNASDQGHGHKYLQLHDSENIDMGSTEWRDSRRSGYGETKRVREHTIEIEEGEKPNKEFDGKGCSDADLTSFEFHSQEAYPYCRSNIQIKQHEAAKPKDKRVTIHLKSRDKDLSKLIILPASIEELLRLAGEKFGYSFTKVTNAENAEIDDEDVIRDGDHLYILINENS

KAT2 currents at hyperpolarized potentials (TEVC) in Xenopus laevis oocytes co-expressing KAT2 and AtCPK6, against KAT2 alone: 2 fold
B1: AtCPK6-YFP (enzyme, Arabidopsis thaliana, UniProt Q38872 1-544, looked up)
chain: MGNSCRGSFKDKIYEGNHSRPEENSKSTTTTVSSVHSPTTDQDFSKQNTNPALVIPVKEPIMRRNVDNQSYYVLGHKTPNIRDLYTLSRKLGQGQFGTTYLCTDIATGVDYACKSISKRKLISKEDVEDVRREIQIMHHLAGHKNIVTIKGAYEDPLYVHIVMELCAGGELFDRIIHRGHYSERKAAELTKIIVGVVEACHSLGVMHRDLKPENFLLVNKDDDFSLKAIDFGLSVFFKPGQIFKDVVGSPYYVAPEVLLKHYGPEADVWTAGVILYILLSGVPPFWAETQQGIFDAVLKGYIDFDTDPWPVISDSAKDLIRKMLCSSPSERLTAHEVLRHPWICENGVAPDRALDPAVLSRLKQFSAMNKLKKMALKVIAESLSEEEIAGLRAMFEAMDTDNSGAITFDELKAGLRRYGSTLKDTEIRDLMEAADVDNSGTIDYSEFIAATIHLNKLEREEHLVSAFQYFDKDGSGYITIDELQQSCIEHGMTDVFLEDIIKEVDQDNDGRIDYEEFVAMMQKGNAGVGRRTMKNSLNISMRDV

Reference: publication PMC7914964, “Ca^2+-Dependent Protein Kinase 6 Enhances KAT2 Shaker Channel Activity in Arabidopsis thaliana” (International Journal of Molecular Sciences, 2021)
